Measurements from article PMC11865311.

Target: CD11b (alpha subunit of the Mac-1 receptor, CD11b/CD18) (human (endogenous in neutrophils)) (UniProt P11215)

## Candida albicans secreted aspartyl protease 6 (Sap6) (from UniProt Q5AC08 19-418) (enzyme)
  ROS production after PMA in neutrophils incubated with Sap6 1200 ng/ml with CD11b blocked by an antibody, relative to PMA-stimulated control neutrophils (50% without the blockade): 85%
